Test results from the RNAGym collection of RNA variant scans (doi:10.1073/pnas.2313332121).
Fewer inactive variants are shown than the library holds.

B1: TPR 5TU (parent)
chain: GGAUCUUCUCGAUCUAACAAAAAAGACAAAUCUGCCACAAAGCUUGAGAGCAUCUUCGGAUGCAGAGGCGGCAGCCUUCGGUGGCGCGAUAGCGCCAACGUUCUCAACUAUGACACGCAAAACGCGUGCUCCGUUGAAUGGAGUUUAUCAUG

Variants of: B1
Assay: polymerase ribozyme fitness, log enrichment relative to wild type (log ratio); higher = more active; in vitro selection for triplet polymerase activity
In short: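 Both subunits of a heterodimeric triplet polymerase ribozyme were given their own mutant library, built by PCR and transcribed. Each library was annealed with a biotinylated primer, the partner subunit and triplets, incubated frozen at −7 °C, and its extended constructs gel-excised, captured on streptavidin beads and amplified by RT-PCR, all in one round done in triplicate. Fitness is the logarithm of genotype enrichment relative to wild-type enrichment, with replicates averaged by inverse-variance weighting. That logarithm is base 2, and Illumina-sequenced genotypes needed ≥10 input reads and ≥1 read per output.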

Variant | polymerase ribozyme fitness (log ratio)
A28U C99A | -4.15
A28U G58U C79G G92U | ≤ -4.2
C27U C99G G133U G141A C149G | ≤ -4.2
A28U C72U | ≤ -4.2
A28U U56A G81A C95U | ≤ -4.2
A28C C54G C79G C85G U145A | ≤ -4.2
A29C | -3.73
A29G | -1.81
A28C G46C G84A C85U | ≤ -4.2
A28C G80C U82G G88C U130C | ≤ -4.2
C27U G50U U55A C96A A110G G133U | -3.94
A28U A40C C75G C87A C95U C105G A121U | ≤ -4.2
A28U G92A G140C | -3.61
A29C C51G C57G G92C A107C A110C G124A U145A U151G | ≤ -4.2
A28G U44G A91U C99U | ≤ -4.2
A29C A39U A52C U101G C125G G126A G143U U146C | ≤ -4.2
A29C U53A | ≤ -4.2
A28C A64U G84A C85G | ≤ -4.2
A29G A52C C85A U90C C95G A97G C118A A138C G143U | ≤ -4.2
A28U C87G C118G | ≤ -4.2
A28C G34A C38G C72U C76A C96G U151A | ≤ -4.2
A28U G48U | ≤ -4.2
A29C C96G | -4.15
A28G G34A G83C C118G | ≤ -4.2

Variant | polymerase ribozyme fitness (log ratio)
C27U U55A G58C C87U U111C A142U | -4.19
A28C C43U C76G A110G A138U | ≤ -4.2
C27U G84A A89G | -3.59
A28U G48A G74C C96U C131A | ≤ -4.2
C27U C75G U78A C85U U148G | ≤ -4.2
A28U A29C U45A G58C C85U C105U A106G | ≤ -4.2
C27U C63G C95U C96U C99G | -3.33
A28C U31G A41U G65A C85G G88U C96U C103U U135G | ≤ -4.2
A29C U53A A73C G84C C103G A107U U134G | ≤ -4.2
A29G A41C | -3.63
A28U G80A A91U | ≤ -4.2
A29C A30C G65A C93U G136A | ≤ -4.2
C27U C85A | -2.04
C27U C85U | -2.83
A28G G42C C43A U55A | ≤ -4.2
C27U U31G U55G G94C A113C | ≤ -4.2
A28C C51A C76G G83C A110U U127G | ≤ -4.2
A28U A29U A37G A66U A73U U78G G84A | ≤ -4.2
A28G G50C G81C C95G C96U A98C A113U G143U | ≤ -4.2
C27U U33A G92C | -3.92
A29G A89U C96U A115C A121C G143U | ≤ -4.2
A28G G34U G80A U102A C108G | ≤ -4.2
A29G A47C U55G | ≤ -4.2
A28C A30U G86A | ≤ -4.2

Variant | polymerase ribozyme fitness (log ratio)
C27U U139A | ≤ -4.2
A28U A47C | -3.9
A29C A41U G81C G86C C105G A106U | ≤ -4.2
C27U U53A U61A C69G G88C | ≤ -4.2
A28U C54U C76A C114U | -3.97
A28C A52U U55G C87G C125U G152A | ≤ -4.2
A28C A49C C96U G133A U134G | -4.14
A29C A41C G62A G84A U90A C118G | ≤ -4.2
A28U A49G C54A C93U U144C | ≤ -4.2
A28C G58U A113G A119U | ≤ -4.2
A28U C32G A41U A73G C85G G88U G136A | ≤ -4.2
A28C G83C G128U | ≤ -4.2
A28G A60C C76G | ≤ -4.2
A29G A30C G86U A137U | ≤ -4.2
C27U G34A A66G A113C A121C | ≤ -4.2
A29G C43U U45A A52C C75G A91U A115G U151G | ≤ -4.2
A28C G65U G68A A91U | ≤ -4.2
A29G A47U A49U G94A C131U | ≤ -4.2
A28U A41C C75U G81A C103G C149G | ≤ -4.2
A28G C36U | ≤ -4.2
A29C G65A C108U C116G C125A U146G A150G | ≤ -4.2
A28U G74A C85U A91U | ≤ -4.2
A28C C36U A39U U55A A66U C79U A91U C93A | ≤ -4.2
A29C A49C C57G C132U | ≤ -4.2

Variant | polymerase ribozyme fitness (log ratio)
A29C G58C | -3.97
A29C G58U | -4.16
A29G C51G U56A C93A C95G C149G G152A | ≤ -4.2
C27U G92U | -1.78
A29C U44A A52U G58A C118A | ≤ -4.2
A28C A30C A41U C57U A107C | ≤ -4.2
A28C U31G C125G | ≤ -4.2
A28U A66C G83U A122G | -4.16
A28G A52C U55C C63A C87U A91U | ≤ -4.2
A28U A73G | ≤ -4.2
A28G C54U C93A U127A | ≤ -4.2
A28U A29U U61A G81A C93A | ≤ -4.2
A28U U90G C99U G141U U151G | ≤ -4.2
A28C U61G G67A C69A C93G A113U G124U | ≤ -4.2
A28C C51U C57A A73U C87G U101G A121U | ≤ -4.2
A29C A49U A52C C54A A89C C123A U135G G140C | ≤ -4.2
A29G A47C G70A C85G A89U A138C A142U | ≤ -4.2
A29G A52G | -4.08
A28G | -2.24
A28C | -3.75
A28U | -3.38
A28U G50A U55C U139G | ≤ -4.2
A29C C63U G65U U144G | ≤ -4.2
A28U U55A C72U U90C A115G | ≤ -4.2

Variant | polymerase ribozyme fitness (log ratio)
A28U C54U C63U G71U C108U C114U A137U U139G A150G | ≤ -4.2
A29C C35U G50C G58U U61G C96A U134A | ≤ -4.2
A29C U33G G34U G50C G84C G100C C108A A113U G141U | ≤ -4.2
A28G U56A | -3.7
A28U G68U C99U A110G | ≤ -4.2
C27U G86A U145A G152A | ≤ -4.2
A29C U31G C87A U139G | ≤ -4.2
A28G C32U G86C A115G U144G | ≤ -4.2
A28C U55A C75G | ≤ -4.2
A28C U44A G59A C125A G143C | ≤ -4.2
A28U A29G C75G G81U C85G A106C C129A | ≤ -4.2
A28G G46A C85A A91G | ≤ -4.2
A28C A30G C93U C103U | -4.06
A28U A41C C96A G141C | -4.02
A28U A30C C79A | ≤ -4.2
A28G G58U | ≤ -4.2
A28U G42C A52C G100C G117C | ≤ -4.2
C27U C93U U104A | -3.11
A28U C87U A119C A138U G140C | ≤ -4.2
A28C U78G C96G U148G | ≤ -4.2
A28G G140A | -4.13
C27U G34C C93A G117A | ≤ -4.2
A28U C54G C72U | ≤ -4.2
A28U C57U G84U G94A A98U C116A A147C | ≤ -4.2

Variant | polymerase ribozyme fitness (log ratio)
A28C G59U A91G U135C | ≤ -4.2
A29C U33G A40U G80U G94U U102C G143A U151A | -3.89
C27U G84A | -1.66
C27U C95U U102A | -2.66
A29G C38U U53G C85G A98U C108A G128U | -3.97
A28G A37C U55A U90C A91G | ≤ -4.2
A29C A49U A91U C118G C149A | ≤ -4.2
A28U U61C G68A G86A A89U G117C | ≤ -4.2
A28C U56A C57A G68A C76A G88U G94A A138C | ≤ -4.2
A29C A52C U53A C54U C75G C129A | ≤ -4.2
A28U A39G A66G C76A G81C | ≤ -4.2
A28G C75G G88A U139G G141C | -3.97
A28C G84A G94U C96G C108G U139C G143C | ≤ -4.2
A28U A40U G48A A119U U127C U146G | ≤ -4.2
A29C C95A G117U G126U G141C G143C | ≤ -4.2
A28U A39C A98G G143U U144G U146G | ≤ -4.2
A28U A41U C57A G70C G88U A89U C95A | ≤ -4.2
A28G U61G C95A A97U A107U | ≤ -4.2
C27U U78A C79G A91C C118G | ≤ -4.2
A29C C54U C85U | ≤ -4.2
A29C A89G C95G U139C G140A G141U A142C | ≤ -4.2
A28C G80C C87G | ≤ -4.2
A29G C36A A47C G50C C76A C85U C118A A121U U135G | ≤ -4.2
A28U G50C C76U C85U C103A C118U U144G | ≤ -4.2

Variant | polymerase ribozyme fitness (log ratio)
A28G U53G C85A U104G A106G A138U A147G | ≤ -4.2
A28G A138C C149A | ≤ -4.2
C27U C43A A97U A150G | ≤ -4.2
A28U G62A G65A G94A G136A | ≤ -4.2
C27U C95U | -2.39
C27U C63U C87A G141U | ≤ -4.2
A28C C57U G59A U78G G86A A115U | ≤ -4.2
C27U G58C U139C | ≤ -4.2
A28G C79G C85U A115C U151A | ≤ -4.2
A29G C35G G84C G100A | ≤ -4.2
A28U A52G C85U G88A C95G U109G | ≤ -4.2
A28U C54U | -3.76
A29C G94A A110U G124A A147U | ≤ -4.2
A29G A60C G80A A121U G141U | ≤ -4.2
A29G C43U A66C C96U C103A | ≤ -4.2
A28C U78G | ≤ -4.2
A29C A37U G133A | ≤ -4.2
A28G C93U U127C | ≤ -4.2
A28U A47C G74C C95U A142C C149A | ≤ -4.2
A28C C85G A106C A113C | ≤ -4.2
A28C A52U C87U | ≤ -4.2
A28C C93U | -4.16
A28U A29G A30U U61A G80C C93A A113U G140U G141A | ≤ -4.2
